The text below walks through data of paper doi:10.1101/359182, “Capturing auxin response factors syntax using DNA binding models”.

In the data set the target is T1, MP (ARF5/Monopteros) (UniProt P93024 1-902).
T1 sequence: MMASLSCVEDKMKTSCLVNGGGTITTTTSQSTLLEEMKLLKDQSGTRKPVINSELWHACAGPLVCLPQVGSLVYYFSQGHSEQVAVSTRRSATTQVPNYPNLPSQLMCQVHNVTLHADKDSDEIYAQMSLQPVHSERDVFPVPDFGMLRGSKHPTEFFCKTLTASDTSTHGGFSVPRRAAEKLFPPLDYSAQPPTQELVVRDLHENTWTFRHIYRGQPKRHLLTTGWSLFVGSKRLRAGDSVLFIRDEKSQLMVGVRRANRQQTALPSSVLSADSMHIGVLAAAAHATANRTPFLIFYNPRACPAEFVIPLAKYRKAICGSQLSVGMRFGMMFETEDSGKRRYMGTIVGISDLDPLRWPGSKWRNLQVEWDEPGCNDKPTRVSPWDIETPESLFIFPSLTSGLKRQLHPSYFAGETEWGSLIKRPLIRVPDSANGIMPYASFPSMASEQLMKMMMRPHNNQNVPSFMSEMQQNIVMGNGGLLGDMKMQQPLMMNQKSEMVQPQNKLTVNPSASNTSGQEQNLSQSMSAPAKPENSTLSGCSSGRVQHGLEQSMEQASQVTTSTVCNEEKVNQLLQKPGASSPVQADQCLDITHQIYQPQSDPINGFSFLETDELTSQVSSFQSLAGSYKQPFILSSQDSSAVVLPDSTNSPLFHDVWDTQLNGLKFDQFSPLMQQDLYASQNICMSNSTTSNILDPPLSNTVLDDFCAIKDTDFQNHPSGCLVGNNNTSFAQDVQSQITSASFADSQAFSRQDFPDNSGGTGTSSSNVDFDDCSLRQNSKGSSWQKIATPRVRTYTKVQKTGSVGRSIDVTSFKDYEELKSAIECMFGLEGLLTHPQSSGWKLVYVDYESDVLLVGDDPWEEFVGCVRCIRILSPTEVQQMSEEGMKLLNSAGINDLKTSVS
Nature of the data set: EMSA; EMSA: 25 mM HEPES pH 7.4, 1 mM EDTA, 2 mM MgCl2, 100 mM KCl, 10% glycerol, 1 mM DTT, 0.5 mM PMSF, 0.1% Triton, 0.045 mg/ml salmon/herring DNA, 20 nM probe, protein 0-500 nM, 1 h at 4 C, 2% agarose in 0.5x TBE. As to conditions: protein: recombinant; tags: N-terminal His-MBP-His; label: Cy5-dCTP, Klenow fill-in opposite 5' G; blunt after fill-in of 5' G overhang. Background: Mobility shift assays separate free from complexed probe on a gel.

B1: IR13 (dsDNA)
DNA 1: GATGCAGCCGACAAAACACATGATTTTGTCGGCTCACAT
DNA 2: ATGTGAGCCGACAAAATCATGTGTTTTGTCGGCTGCATC
As for B1, the binding result is “binds”.
